In US20200377590A1 (Hoffmann-La Roche, published 2020):

B1: CD81K13 HC 02-hVH_1_3 / LC 1c-hVK_3_15 (antibody, V domains shown)
VH: QVQLVQSGAEVKKPGASVKVSCKASGYTFTDSYMHWVRQAPGQRLEWMGRIDTGNGNTKYSQKFQGRVTITTDTSASTAYMELSSLRSEDTAVYYCAPYGYGFHSWGQGTLVTVSS
VL: EIVMTQSPATLSVSPGERATLSCRASENIYRTLAWYQQKPGQAPRLLIYGATTLADGIPARFSGSGSGTEFTLTISSLQSEDFGVYYCQHFWGTPWTFGQGTKVEIK
notes: human constant region
B2: CD81K13 HC 02-hVH_1_3 / LC 5b-hVK_1_39-GA (antibody, V domains shown)
VH: QVQLVQSGAEVKKPGASVKVSCKASGYTFTDSYMHWVRQAPGQRLEWMGRIDTGNGNTKYSQKFQGRVTITTDTSASTAYMELSSLRSEDTAVYYCAPYGYGFHSWGQGTLVTVSS
VL: DIQMTQSPSSLSASVGDRVTITCRASENIYRTLAWYQQKPGKAPKLLIYGATTLADGVPSRFSGSGSGTDFTLTISSLQPEDFATYYCQHFWGTPWTFGQGTKVEIK
notes: human constant region
B3: CD81K13 HC 02-hVH_1_3 / LC 5b-hVK_1_39 (antibody, V domains shown)
VH: QVQLVQSGAEVKKPGASVKVSCKASGYTFTDSYMHWVRQAPGQRLEWMGRIDTGNGNTKYSQKFQGRVTITTDTSASTAYMELSSLRSEDTAVYYCAPYGYGFHSWGQGTLVTVSS
VL: DIQMTQSPSSLSASVGDRVTITCRASENIYRTLAWYQQKPGKAPKLLIYGATTLADGVPSRFSGSGSGTDFTLTISSLQPEDFATYYCQHFWGTPWTFGQGTKVEIK
notes: human constant region
B4: CD81K13 HC 02-hVH_1_3 / LC 06-hVK_1_39 (antibody, V domains shown)
VH: QVQLVQSGAEVKKPGASVKVSCKASGYTFTDSYMHWVRQAPGQRLEWMGRIDTGNGNTKYSQKFQGRVTITTDTSASTAYMELSSLRSEDTAVYYCAPYGYGFHSWGQGTLVTVSS
VL: DIQMTQSPSSLSASVGDRVTITCRASENIYRTLAWYQQKPGKAPKLLIYAATTLASGVPSRFSGSGSGTDFTLTISSLQPEDFGTYYCQHFWGTPWTFGQGTKVEIK
notes: human constant region
B5: CD81K13 HC 02-hVH_1_3 / LC 05-hVK_1_39 (antibody, V domains shown)
VH: QVQLVQSGAEVKKPGASVKVSCKASGYTFTDSYMHWVRQAPGQRLEWMGRIDTGNGNTKYSQKFQGRVTITTDTSASTAYMELSSLRSEDTAVYYCAPYGYGFHSWGQGTLVTVSS
VL: DIQMTQSPSSLSASVGDRVTITCRASENIYRTLAWYQQKPGKAPKLLIYAATTLASGVPSRFSGSGSGTDFTLTISSLQPEDFATYYCQHFWGTPWTFGQGTKVEIK
notes: human constant region
B6: CD81K13 HC 02-hVH_1_3 / LC 04-hVK_1_9 (antibody, V domains shown)
VH: QVQLVQSGAEVKKPGASVKVSCKASGYTFTDSYMHWVRQAPGQRLEWMGRIDTGNGNTKYSQKFQGRVTITTDTSASTAYMELSSLRSEDTAVYYCAPYGYGFHSWGQGTLVTVSS
VL: DIQLTQSPSFLSASVGDRVTITCRASENIYRTLAWYQQKPGKAPKLLIYAATTLASGVPSRFSGSGSGTEFTLTISSLQPEDFGTYYCQHFWGTPWTFGQGTKVEIK
notes: human constant region
B7: CD81K13 HC 02-hVH_1_3 / LC 03-hVK_1_9 (antibody, V domains shown)
VH: QVQLVQSGAEVKKPGASVKVSCKASGYTFTDSYMHWVRQAPGQRLEWMGRIDTGNGNTKYSQKFQGRVTITTDTSASTAYMELSSLRSEDTAVYYCAPYGYGFHSWGQGTLVTVSS
VL: DIQLTQSPSFLSASVGDRVTITCRASENIYRTLAWYQQKPGKAPKLLIYAATTLASGVPSRFSGSGSGTEFTLTISSLQPEDFATYYCQHFWGTPWTFGQGTKVEIK
notes: human constant region
B8: CD81K13 HC 05-hVH_1_69 / LC 1c-hVK_3_15 (antibody, V domains shown)
VH: QVQLVQSGAEVKKPGSSVKVSCKASGFNFKDSYLHWVRQAPGQGLEWMGRIDTGNGNVKFDPKFQGRVTITTDESTSTAYMELSSLRSEDTAVYYCVPYGYGFHSWGQGTLVTVSS
VL: EIVMTQSPATLSVSPGERATLSCRASENIYRTLAWYQQKPGQAPRLLIYGATTLADGIPARFSGSGSGTEFTLTISSLQSEDFGVYYCQHFWGTPWTFGQGTKVEIK
notes: human constant region
B9: CD81K13 HC 05-hVH_1_69 / LC 01-hVK_3_15 (antibody, V domains shown)
VH: QVQLVQSGAEVKKPGSSVKVSCKASGFNFKDSYLHWVRQAPGQGLEWMGRIDTGNGNVKFDPKFQGRVTITTDESTSTAYMELSSLRSEDTAVYYCVPYGYGFHSWGQGTLVTVSS
VL: EIVMTQSPATLSVSPGERATLSCRASENIYRTLAWYQQKPGQAPRLLIYGATTRATGIPARFSGSGSGTEFTLTISSLQSEDFGVYYCQHFWGTPWTFGQGTKVEIK
notes: human constant region
B10: CD81K13 HC 5b-hVH_1_69 / LC 01-hVK_3_15 (antibody, V domains shown)
VH: QVQLVQSGAELVKPGSSVKVSCKASGFNFKDSYLHWVRQAPGQGLEWMGRIDTGNGNVKFDPKFQGRVTITTDESTSTAYMELSSLRSEDTAVYYCVPYGYGFHSWGQGTLVTVSS
VL: EIVMTQSPATLSVSPGERATLSCRASENIYRTLAWYQQKPGQAPRLLIYGATTRATGIPARFSGSGSGTEFTLTISSLQSEDFGVYYCQHFWGTPWTFGQGTKVEIK
notes: human constant region
B11: CD81K13 HC 5b-hVH_1_69 / LC 1b-hVK_3_15 (antibody, V domains shown)
VH: QVQLVQSGAELVKPGSSVKVSCKASGFNFKDSYLHWVRQAPGQGLEWMGRIDTGNGNVKFDPKFQGRVTITTDESTSTAYMELSSLRSEDTAVYYCVPYGYGFHSWGQGTLVTVSS
VL: EIVMTQSPATLSVSPGERATLSCRASENIYRTLAWYQQKPGQAPRLLIYGATTLADGIPARFSGSGSGTEFTLTISSLQSEDFAVYYCQHFWGTPWTFGQGTKVEIK
notes: human constant region
B12: CD81K13 HC 03-hVH_1_69 / LC 1c-hVK_3_15 (antibody, V domains shown)
VH: QVQLVQSGAEVKKPGSSVKVSCKASGFNFKDSYLHWVRQAPGQGLEWMGRIDTGNGNVKYAQKFQGRVTITADESTSTAYMELSSLRSEDTAVYYCAPYGYGFHSWGQGTLVTVSS
VL: EIVMTQSPATLSVSPGERATLSCRASENIYRTLAWYQQKPGQAPRLLIYGATTLADGIPARFSGSGSGTEFTLTISSLQSEDFGVYYCQHFWGTPWTFGQGTKVEIK
notes: human constant region
B13: CD81K13 HC 03-hVH_1_69 / LC 01-hVK_3_15 (antibody, V domains shown)
VH: QVQLVQSGAEVKKPGSSVKVSCKASGFNFKDSYLHWVRQAPGQGLEWMGRIDTGNGNVKYAQKFQGRVTITADESTSTAYMELSSLRSEDTAVYYCAPYGYGFHSWGQGTLVTVSS
VL: EIVMTQSPATLSVSPGERATLSCRASENIYRTLAWYQQKPGQAPRLLIYGATTRATGIPARFSGSGSGTEFTLTISSLQSEDFGVYYCQHFWGTPWTFGQGTKVEIK
notes: human constant region
B14: CD81K13 HC 03-hVH_1_69 / LC 1b-hVK_3_15 (antibody, V domains shown)
VH: QVQLVQSGAEVKKPGSSVKVSCKASGFNFKDSYLHWVRQAPGQGLEWMGRIDTGNGNVKYAQKFQGRVTITADESTSTAYMELSSLRSEDTAVYYCAPYGYGFHSWGQGTLVTVSS
VL: EIVMTQSPATLSVSPGERATLSCRASENIYRTLAWYQQKPGQAPRLLIYGATTLADGIPARFSGSGSGTEFTLTISSLQSEDFAVYYCQHFWGTPWTFGQGTKVEIK
notes: human constant region
B15: CD81K13 HC 05-hVH_1_69 / LC 1b-hVK_3_15 (antibody, V domains shown)
VH: QVQLVQSGAEVKKPGSSVKVSCKASGFNFKDSYLHWVRQAPGQGLEWMGRIDTGNGNVKFDPKFQGRVTITTDESTSTAYMELSSLRSEDTAVYYCVPYGYGFHSWGQGTLVTVSS
VL: EIVMTQSPATLSVSPGERATLSCRASENIYRTLAWYQQKPGQAPRLLIYGATTLADGIPARFSGSGSGTEFTLTISSLQSEDFAVYYCQHFWGTPWTFGQGTKVEIK
notes: human constant region
B16: CD81K13 HC 05-hVH_1_69 / LC CD81K13 (antibody, V domains shown)
VH: QVQLVQSGAEVKKPGSSVKVSCKASGFNFKDSYLHWVRQAPGQGLEWMGRIDTGNGNVKFDPKFQGRVTITTDESTSTAYMELSSLRSEDTAVYYCVPYGYGFHSWGQGTLVTVSS
VL: DIQMTQSPASLSVSVGETVTITCRASENIYRTLAWYLQKQGKSPQLLVYGATTLADGVPSRFSGSGSGTQYYLKINSLQSEDFGTYHCQHFWGTPWTFGGGTKVEIK
notes: human constant region
B17: CD81K13 HC 5b-hVH_1_69 / LC CD81K13 (antibody, V domains shown)
VH: QVQLVQSGAELVKPGSSVKVSCKASGFNFKDSYLHWVRQAPGQGLEWMGRIDTGNGNVKFDPKFQGRVTITTDESTSTAYMELSSLRSEDTAVYYCVPYGYGFHSWGQGTLVTVSS
VL: DIQMTQSPASLSVSVGETVTITCRASENIYRTLAWYLQKQGKSPQLLVYGATTLADGVPSRFSGSGSGTQYYLKINSLQSEDFGTYHCQHFWGTPWTFGGGTKVEIK
notes: human constant region
B18: CD81K13 HC 03-hVH_1_69 / LC CD81K13 (antibody, V domains shown)
VH: QVQLVQSGAEVKKPGSSVKVSCKASGFNFKDSYLHWVRQAPGQGLEWMGRIDTGNGNVKYAQKFQGRVTITADESTSTAYMELSSLRSEDTAVYYCAPYGYGFHSWGQGTLVTVSS
VL: DIQMTQSPASLSVSVGETVTITCRASENIYRTLAWYLQKQGKSPQLLVYGATTLADGVPSRFSGSGSGTQYYLKINSLQSEDFGTYHCQHFWGTPWTFGGGTKVEIK
notes: human constant region
B19: CD81K13 HC 06-hVH_1_3 / LC CD81K13 (antibody, V domains shown)
VH: QVQLVQSGAEVKKPGASVKVSCKASGYTFKDSYLHWVRQAPGQRLEWMGRIDTGNGNVKFDPKFQGRVTITTDTSASTAYMELSSLRSEDTAVYYCAPYGYGFHSWGQGTLVTVSS
VL: DIQMTQSPASLSVSVGETVTITCRASENIYRTLAWYLQKQGKSPQLLVYGATTLADGVPSRFSGSGSGTQYYLKINSLQSEDFGTYHCQHFWGTPWTFGGGTKVEIK
notes: human constant region
B20: CD81K13 HC 5b-hVH_1_69-GA / LC CD81K13 (antibody, V domains shown)
VH: QVQLVQSGAELVKPGSSVKVSCKASGFNFKDSYLHWVRQAPGQGLEWMGRIDTGNGNVKFDPKFQGRVTITTDESTSTAYMELSSLRSEDTAVYYCVPYGYGFHSWGQGTLVTVSS
VL: DIQMTQSPASLSVSVGETVTITCRASENIYRTLAWYLQKQGKSPQLLVYGATTLADGVPSRFSGSGSGTQYYLKINSLQSEDFGTYHCQHFWGTPWTFGGGTKVEIK
notes: human constant region
B21: CD81K13 HC 07-hVH_1_3 / LC CD81K13 (antibody, V domains shown)
VH: QVQLVQSGAEVKKPGASVKVSCKASGYTFKDSYLHWVRQAPGQGLEWMGRIDTGNGNVKFDPKFQGRVTITTDTSASTAYMELSSLRSEDTAVYYCAPYGYGFHSWGQGTLVTVSS
VL: DIQMTQSPASLSVSVGETVTITCRASENIYRTLAWYLQKQGKSPQLLVYGATTLADGVPSRFSGSGSGTQYYLKINSLQSEDFGTYHCQHFWGTPWTFGGGTKVEIK
notes: human constant region

Each binder was assayed against T1, CD81 (UniProt P60033 1-236, limits assumed) (assay: cell ELISA;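 also: antibody binding to HuH7 cells expressing CD81 versus a CD81-negative HuH7 control line, bound antibody detected by secondary reagent, absorbance at 450 nm with 620 nm reference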).
T1 construct: whole, on cells; also called CD81 receptor
T1 sequence (looked up): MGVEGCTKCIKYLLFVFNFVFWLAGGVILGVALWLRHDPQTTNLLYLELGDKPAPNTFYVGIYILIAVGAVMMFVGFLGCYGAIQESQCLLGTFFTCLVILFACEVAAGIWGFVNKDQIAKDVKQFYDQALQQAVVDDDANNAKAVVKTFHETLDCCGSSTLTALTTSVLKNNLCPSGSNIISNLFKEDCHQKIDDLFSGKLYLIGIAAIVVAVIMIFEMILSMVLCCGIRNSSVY

In order of falling ELISA data:
1. B16  0.94
2. B20  0.935
3. B17  0.813
4. B18  0.787
5. B8  0.767
6. B10  0.749
7. B9  0.684
8. B13  0.649
9. B11  0.646
10. B15  0.624
11. B21  0.572
12. B19  0.447
13. B14  0.403
14. B3  0.29
15. B1  0.283
16. B12  0.252
17. B4  0.251
18. B2  0.247
19. B6  0.163
20. B5  0.161
21. B7  0.13
